In patent US20240084003A1:

Biological target: monkey CD22 on HEK293T-monkey CD22 cells (monkey)
Test: FACS, HEK293T-monkey CD22 cells

Chain of monkey CD22 on HEK293T-monkey CD22 cells (monkey) (chain, as listed by the source limits assumed): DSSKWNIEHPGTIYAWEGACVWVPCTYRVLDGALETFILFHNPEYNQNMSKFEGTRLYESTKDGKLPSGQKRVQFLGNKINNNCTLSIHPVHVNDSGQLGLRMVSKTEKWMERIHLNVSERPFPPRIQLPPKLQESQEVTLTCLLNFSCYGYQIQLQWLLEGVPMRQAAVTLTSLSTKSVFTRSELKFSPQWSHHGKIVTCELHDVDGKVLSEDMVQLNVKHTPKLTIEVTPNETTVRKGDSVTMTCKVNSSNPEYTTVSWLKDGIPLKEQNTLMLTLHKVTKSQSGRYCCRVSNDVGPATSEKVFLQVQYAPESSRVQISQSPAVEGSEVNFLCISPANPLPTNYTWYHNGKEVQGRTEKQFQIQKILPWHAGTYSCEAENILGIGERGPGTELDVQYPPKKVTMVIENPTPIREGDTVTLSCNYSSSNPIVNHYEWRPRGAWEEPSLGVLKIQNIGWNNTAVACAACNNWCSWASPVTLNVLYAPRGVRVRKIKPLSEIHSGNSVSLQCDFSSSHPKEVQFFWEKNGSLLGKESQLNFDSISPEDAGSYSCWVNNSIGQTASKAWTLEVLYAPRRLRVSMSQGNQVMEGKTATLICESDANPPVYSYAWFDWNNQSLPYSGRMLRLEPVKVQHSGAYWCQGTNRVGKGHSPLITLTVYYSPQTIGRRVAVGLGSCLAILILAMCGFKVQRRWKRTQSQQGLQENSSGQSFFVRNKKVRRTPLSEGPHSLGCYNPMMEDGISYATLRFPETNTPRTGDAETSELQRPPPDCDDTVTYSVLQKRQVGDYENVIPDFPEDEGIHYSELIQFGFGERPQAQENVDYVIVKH

B1: F1.280.1 (antibody, human IgG1, kappa, V domains shown)
VH: QIQLVQSGPELKKPGETVKISCKASGYTFTTYGMSWVKQTPGKGLTWMGWINTDSGVPTYADDFKRRFAFSLEASATTAYLQINNLKNEDTATYFCARGGPDYWGQGTTLTVSS
VL: DILLTQSPATLSVTPGETVSLSCRASQSIYKNLHWYHQKSHRSPRLLIKYASDSISGIPSRFTGSGSGTNFTLSINSVKPEDEGIYYCLQGYIVPLTFGAGTKLELKR
  Maximum mean fluorescence intensity: 1490 MFI
